Data reported in US5180678A, “Uses of substantially pure interleukin-9 receptor” (Ludwig Institute for Cancer Research, priority 1992, dated 1993).

Experiments:
[1] = target: T1, IL-9R (Mus musculus, UniProt Q01114); test: Competitive binding of radiolabelled rIL-9 to TS1 cells (specificity of IL-9 binding); parameters: a number of different cell types were tested for the presence of the IL-9R molecule; endogenous in cells; conditions: labelled rIL-9 6.1×10^-10 M, 10^6 TS1 cells, 3 h 4° C., no competitor 4083 ± 16
T1 sequence (Q01114 38-468): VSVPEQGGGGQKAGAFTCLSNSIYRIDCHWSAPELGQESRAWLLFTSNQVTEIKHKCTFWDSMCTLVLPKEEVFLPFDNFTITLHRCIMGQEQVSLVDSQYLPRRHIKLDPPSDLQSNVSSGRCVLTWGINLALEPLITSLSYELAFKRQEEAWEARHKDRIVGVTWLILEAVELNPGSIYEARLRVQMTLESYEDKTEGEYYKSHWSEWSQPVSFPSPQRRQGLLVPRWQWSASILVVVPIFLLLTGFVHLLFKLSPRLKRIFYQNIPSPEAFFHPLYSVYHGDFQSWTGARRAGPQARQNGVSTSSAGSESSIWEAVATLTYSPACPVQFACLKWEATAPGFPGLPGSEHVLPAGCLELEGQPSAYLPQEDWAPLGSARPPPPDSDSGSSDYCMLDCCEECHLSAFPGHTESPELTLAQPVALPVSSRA
Description: In order to test whether the radioactive IL-9 would bind to TS1 cells which are mouse cells, which are IL-9 dependent, a competitive assay was carried out. Specifically, rIL-9 was incubated with TS1 cells in 140 ul of DMEM containing BSA (10 mg/ml) and Na3 N (10 mM). In order to determine the level of binding, a 100 fold excess of "cold", i.e., non-radiolabelledIL-9, was also mixed with the material. The rIL-9 was admixed at 6.1×10^-10 M, for three hours at 4° C., with 10^6 TS1 cells. Bound material was separated from free ligand via centrifugation over a layer of dibutyl and dioctyl phthalate (15:I). In addition, the experiments were repeated using various interleukins, interferon-γ ("INF-γ"), tumor necrosis factor ("TNF"), and granulocyte, macrophage colony stimulating factor ("GM-CSF"). All experiments were carried out in triplicate.

[2] = target: T1, IL-9R; test: Saturation binding of radiolabelled rIL-9 to TS-1 cells, Scatchard transformation; parameters: endogenous in cells; host or cells: TS1 cells (mouse, IL-9 dependent)
Description: Experiments were performed to study the saturation binding of rIL-9. In these studies, as depicted in FIGS. 4a and 4b, increasing concentrations of radiolabelled rIL-9 were incubated with TS-1 cells (5×10^6 cells, 4° C. for three hours). This binding assay, as with those described supra. used 140 ul of DMEM containing BSA and Na3 N, also as described supra. Binding plateaued at 1 nM concentration, with half maximal saturation being reached at approximately 100 pM (FIG. 4a).

[3] = radiolabelled rIL-9, 5×10^6 TS-1 cells, 4° C., three hours (FIG. 4a)

IL-1α: interleukin tested as competitor of IL-9 binding
Bound Radioactivity ([1]; competitor 8.7 × 10^-8 M): 4232 ± 177 cpm

IL-4: interleukin tested as competitor of IL-9 binding
Bound Radioactivity ([1]; competitor 8.0 × 10^-8 M): 4154 ± 156 cpm

IL-5: interleukin tested as competitor of IL-9 binding
Bound Radioactivity ([1]; competitor 2.7 × 10^-8 M): 4642 ± 77 cpm

IL-6: interleukin tested as competitor of IL-9 binding
Bound Radioactivity ([1]; competitor 6.7 × 10^-8 M): 4751 ± 61 cpm

B1: rIL-9: recombinant mouse IL-9 from baculovirus infected Sf9 cells, 22-25 kilodaltons; used unlabelled and 125I-labelled (protein, UniProt P15247 19-144, looked up)
Interleukin-9: QRCSTTWGIRDTNYLIENLKDDPPSKCSCSGNVTSCLCLSVPTDDCTTPCYREGLLQLTNATQKSRLLPVFHRVKRIVEVLKNITCPSFSCEKPCNQTMAGNTLSFLKSLLGTFQKTEMQRQKSRP
modifications: 125I-labelled in some uses
notes: recombinant mouse IL-9 from baculovirus infected Sf9 cells, 22-25 kilodaltons; used unlabelled and 125I-labelled
density of IL-9 receptor ([2]; Scatchard transformation, 3 runs, TS-1 cells (FIG. 4b)): 3111±565 /cell
Kd ([2]; Scatchard transformation, 3 runs, TS-1 cells, single class of receptor (FIG. 4b)): 0.103 ± 0.013 nM
concentration at which binding plateaued [2, 3]: 1 nM
half maximal saturation [2, 3]: approximately 100 pM
Bound Radioactivity ([1]; competitor 1.2 × 10^-9 M): 733 ± 21 cpm
Bound Radioactivity ([1]; competitor 6.1 × 10^-8 M): 80 ± 8 cpm

B2: IFN-γ: interferon-γ tested as competitor of IL-9 binding (protein, UniProt P01579 24-161, looked up)
Interferon gamma: QDPYVKEAENLKKYFNAGHSDVADNGTLFLGILKNWKEESDRKIMQSQIVSFYFKLFKNFKDDQSIQKSVETIKEDMNVKFFNSNKKKRDDFEKLTNYSVTDLNVQRKAIHELIQVMAELSPAAKTGKRKRSQMLFRG
Bound Radioactivity ([1]; competitor 2.4 × 10^-8 M): 4944 ± 8 cpm

B3: GM-CSF: granulocyte, macrophage colony stimulating factor tested as competitor of IL-9 binding (protein, UniProt P01587 18-141, looked up)
Granulocyte-macrophage …: APTRSPITVTRPWKHVEAIKEALNLLDDMPVTLNEEVEVVSNEFSFKKLTCVQTRLKIFEQGLRGNFTKLKGALNMTASYYQTYCPPTPETDCETQVTTYADFIDSLKTFLTDIPFECKKPGQK
Bound Radioactivity ([1]; competitor 6.4 × 10^-8 M): 4682 ± 63 cpm
